The text below walks through data of the supplement of paper PMC9112550, “Optimization of the antimicrobial peptide Bac7 by deep mutational scanning” (BMC Biology, 2022).

In the data set the test system is Escherichia coli TOP10. Nature of the data set: shrunken log2 fold change of peptide-encoding DNA abundance (4.5 h post-induction vs induction); higher = less antimicrobial activity (less host growth inhibition). Particulars: time post-induction: 4.5 h; library: site-saturation at positions 5, 18, 19, 20.
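Further: peptides expressed intracellularly from a pBAD plasmid library in pooled LB shake-flask culture, induced with 0.3% L-arabinose, DNA abundance read by NGS, three biological replicates, DESeq2 with apeglm shrinkage.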

In the case of RRIRLRPPRLPRPRPRPNVTPRP, the “shrunken log2 fold change” value was -0.286.
The result for RRIRFRPPRLPRPRPRPVIRPRP reads -0.68; that for RRIRDRPPRLPRPRPRPEQSPRP, 0.964.
The result for RRIRQRPPRLPRPRPRPSMDPRP reads -0.271; that for RRIRRRPPRLPRPRPRPRKPPRP, 0.153; that for RRIRLRPPRLPRPRPRPDADPRP, 1.25.
The result for RRIRYRPPRLPRPRPRPDCRPRP reads -0.363; that for RRIRTRPPRLPRPRPRPEDLPRP, 0.0657; that for RRIRVRPPRLPRPRPRPCKDPRP, -0.0644.
For RRIRGRPPRLPRPRPRPHVGPRP, the “shrunken log2 fold change” value was 0.0375.
With RRIRARPPRLPRPRPRPLISPRP the figure was -0.0384; with RRIRTRPPRLPRPRPRPQQMPRP, -0.0941.
The result for RRIRDRPPRLPRPRPRPSCFPRP reads 0.126; that for RRIRYRPPRLPRPRPRPGARPRP, -0.00825; that for RRIRCRPPRLPRPRPRPIDHPRP, -1.01.
With RRIRSRPPRLPRPRPRPWGKPRP the figure was -0.109; with RRIRSRPPRLPRPRPRPVGCPRP, 0.281.
As for RRIRGRPPRLPRPRPRPFTHPRP, the “shrunken log2 fold change” value stood at 0.0753.
Take RRIRNRPPRLPRPRPRPNMCPRP: the “shrunken log2 fold change” value was -0.0592.
The result for RRIRTRPPRLPRPRPRPPYLPRP reads -0.365.
The result for RRIRIRPPRLPRPRPRPYGVPRP reads -0.266; that for RRIRDRPPRLPRPRPRPMQMPRP, 0.467.
With RRIRWRPPRLPRPRPRPYRTPRP the figure was 0.00941; with RRIRQRPPRLPRPRPRPKEVPRP, 0.382; with RRIRPRPPRLPRPRPRPHHVPRP, 0.0547.
In the case of RRIRYRPPRLPRPRPRPKTLPRP, the “shrunken log2 fold change” value is -0.459.
For the sequence RRIRRRPPRLPRPRPRPKAFPRP, the “shrunken log2 fold change” value is -0.0104.
Take RRIRARPPRLPRPRPRPFRTPRP: the “shrunken log2 fold change” value amounted to 0.12.
Turning to RRIRHRPPRLPRPRPRPLPIPRP, the “shrunken log2 fold change” value was -0.598.
As to RRIRARPPRLPRPRPRPDCLPRP, the “shrunken log2 fold change” value is 0.948.
Turning to RRIRVRPPRLPRPRPRPDGEPRP, the “shrunken log2 fold change” value was found to be 0.487.
For the sequence RRIRRRPPRLPRPRPRPMPCPRP, the “shrunken log2 fold change” value was 0.0929.
With RRIRGRPPRLPRPRPRPRMQPRP the figure was 0.494; with RRIRHRPPRLPRPRPRPFVQPRP, -0.14.
With RRIRDRPPRLPRPRPRPHKVPRP the figure was -0.0568; with RRIRWRPPRLPRPRPRPCNPPRP, -0.00159; with RRIRGRPPRLPRPRPRPNWKPRP, 0.332.
With RRIRQRPPRLPRPRPRPTDDPRP, the “shrunken log2 fold change” value is -0.0703.
Turning to RRIRERPPRLPRPRPRPCGPPRP, the “shrunken log2 fold change” value is -0.131.
With RRIRKRPPRLPRPRPRPFHPPRP the figure was -0.158; with RRIRQRPPRLPRPRPRPKPRPRP, 0.309; with RRIRMRPPRLPRPRPRPFIQPRP, 0.0137.
For RRIRYRPPRLPRPRPRPVDTPRP, the “shrunken log2 fold change” value was -0.204.
In the case of RRIRWRPPRLPRPRPRPVQPPRP, the “shrunken log2 fold change” value stood at 0.0708.
The result for RRIRTRPPRLPRPRPRPVAQPRP reads 0.26; that for RRIRMRPPRLPRPRPRPCRDPRP, 0.244; that for RRIRTRPPRLPRPRPRPWYFPRP, -0.432.
With RRIRYRPPRLPRPRPRPDHHPRP the figure was -0.0423; with RRIRWRPPRLPRPRPRPANSPRP, 0.0236; with RRIRYRPPRLPRPRPRPRFTPRP, -0.17.
With RRIRYRPPRLPRPRPRPLTMPRP the figure was -0.529; with RRIRARPPRLPRPRPRPGCYPRP, -0.00374.
RRIRFRPPRLPRPRPRPPQTPRP: the “shrunken log2 fold change” value is 0.473.
The result for RRIRDRPPRLPRPRPRPSPIPRP reads 0.0798; that for RRIRMRPPRLPRPRPRPPMFPRP, 0.225; that for RRIRVRPPRLPRPRPRPPEGPRP, 0.582.
The result for RRIRQRPPRLPRPRPRPHFRPRP reads 0.092; that for RRIRLRPPRLPRPRPRPEGDPRP, 0.0662.
Take RRIRDRPPRLPRPRPRPHSWPRP: the “shrunken log2 fold change” value was 0.05.
For the sequence RRIRVRPPRLPRPRPRPMGKPRP, the “shrunken log2 fold change” value was -0.0406.
The result for RRIRVRPPRLPRPRPRPCMQPRP reads 0.162; that for RRIRSRPPRLPRPRPRPHDAPRP, -0.142.
With RRIRYRPPRLPRPRPRPVVLPRP the figure was -0.397; with RRIRFRPPRLPRPRPRPMVNPRP, -0.171; with RRIRIRPPRLPRPRPRPCNRPRP, -0.425.
With RRIRCRPPRLPRPRPRPFFRPRP the figure was -0.116.
For the sequence RRIRQRPPRLPRPRPRPIGEPRP, the “shrunken log2 fold change” value was -0.0171.
The result for RRIRWRPPRLPRPRPRPEKHPRP reads 0.39; that for RRIRFRPPRLPRPRPRPTAIPRP, -0.0113; that for RRIRNRPPRLPRPRPRPCYKPRP, -0.173.
With RRIRTRPPRLPRPRPRPYWRPRP the figure was -0.174.
In the case of RRIRSRPPRLPRPRPRPQGVPRP, the “shrunken log2 fold change” value is 0.225.
As for RRIRDRPPRLPRPRPRPSMTPRP, the “shrunken log2 fold change” value came out at 0.237.
On to RRIRIRPPRLPRPRPRPQGVPRP, for which the “shrunken log2 fold change” value is -0.0375.
With RRIRARPPRLPRPRPRPDCYPRP the figure was 0.283.
With RRIRDRPPRLPRPRPRPEPGPRP the figure was 0.707; with RRIRSRPPRLPRPRPRPQSHPRP, -0.216; with RRIRDRPPRLPRPRPRPHMCPRP, 0.0514.
The result for RRIRHRPPRLPRPRPRPWICPRP reads -0.0191; that for RRIRLRPPRLPRPRPRPAKAPRP, 0.271.
Take RRIRYRPPRLPRPRPRPICDPRP: the “shrunken log2 fold change” value was -0.269.
With RRIRFRPPRLPRPRPRPKQEPRP the figure was 0.246.
For the sequence RRIRGRPPRLPRPRPRPYSRPRP, the “shrunken log2 fold change” value is -0.024.
On to RRIRNRPPRLPRPRPRPWARPRP, for which the “shrunken log2 fold change” value worked out at 0.0712.
As for RRIRCRPPRLPRPRPRPWVYPRP, the “shrunken log2 fold change” value was -0.0957.
With RRIRHRPPRLPRPRPRPMQHPRP the figure was 0.0685.
With RRIRNRPPRLPRPRPRPDYCPRP the figure was -0.00677; with RRIRERPPRLPRPRPRPIRRPRP, -0.17.
Regarding RRIRMRPPRLPRPRPRPLPMPRP, the “shrunken log2 fold change” value is 0.429.
The result for RRIRFRPPRLPRPRPRPYDCPRP reads 0.0187; that for RRIRGRPPRLPRPRPRPRRLPRP, 0.502; that for RRIRKRPPRLPRPRPRPAISPRP, 0.214.
With RRIRPRPPRLPRPRPRPQLAPRP the figure was 0.417; with RRIRWRPPRLPRPRPRPRVWPRP, 0.646.
With RRIRHRPPRLPRPRPRPLYNPRP the figure was -0.459; with RRIRYRPPRLPRPRPRPSSQPRP, -0.261; with RRIRDRPPRLPRPRPRPQHDPRP, -0.249.
With RRIRLRPPRLPRPRPRPHTNPRP, the “shrunken log2 fold change” value is -0.377.
As for RRIRSRPPRLPRPRPRPCWFPRP, the “shrunken log2 fold change” value was -0.0822.
As for RRIRNRPPRLPRPRPRPNCFPRP, the “shrunken log2 fold change” value worked out at 0.0424.
In the case of RRIRPRPPRLPRPRPRPQRSPRP, the “shrunken log2 fold change” value was 0.265.
On to RRIRYRPPRLPRPRPRPPMEPRP, for which the “shrunken log2 fold change” value was 0.0358.
The result for RRIRHRPPRLPRPRPRPVLGPRP reads 0.463; that for RRIRWRPPRLPRPRPRPYNGPRP, -0.668; that for RRIRERPPRLPRPRPRPIKKPRP, 0.00021.
Consider RRIRLRPPRLPRPRPRPYNWPRP, for which the “shrunken log2 fold change” value is -0.0937.
In the case of RRIRPRPPRLPRPRPRPVLPPRP, the “shrunken log2 fold change” value was 0.11.
On to RRIRFRPPRLPRPRPRPKQTPRP, for which the “shrunken log2 fold change” value is 1.01.
With RRIRWRPPRLPRPRPRPIYWPRP, the “shrunken log2 fold change” value was -0.208.
The result for RRIRERPPRLPRPRPRPAWDPRP reads 0.0257; that for RRIRSRPPRLPRPRPRPVLDPRP, -0.058; that for RRIRKRPPRLPRPRPRPQGIPRP, 0.114.
The result for RRIRPRPPRLPRPRPRPADFPRP reads -0.00303; that for RRIRRRPPRLPRPRPRPLDIPRP, -0.121; that for RRIRIRPPRLPRPRPRPDNCPRP, -0.162.
The result for RRIRLRPPRLPRPRPRPKADPRP reads -0.051.
RRIRPRPPRLPRPRPRPGYHPRP: the “shrunken log2 fold change” value was -0.506.
Turning to RRIRMRPPRLPRPRPRPTMVPRP, the “shrunken log2 fold change” value was determined as 0.263.
The result for RRIRARPPRLPRPRPRPCTKPRP reads 0.143; that for RRIRSRPPRLPRPRPRPRVCPRP, 0.366.
The result for RRIRPRPPRLPRPRPRPPISPRP reads -0.0159; that for RRIRTRPPRLPRPRPRPHQPPRP, -0.0196.
Regarding RRIRVRPPRLPRPRPRPVISPRP, the “shrunken log2 fold change” value is -0.509.
Take RRIRNRPPRLPRPRPRPVTHPRP: the “shrunken log2 fold change” value stood at 0.0124.
Turning to RRIRKRPPRLPRPRPRPFQVPRP, the “shrunken log2 fold change” value stood at 0.0377.
